Target: IL-6 receptor on U266 human myeloma cells (human) (UniProt P08887)
Experiment: cell-based or functional assay

Sequence of IL-6 receptor on U266 human myeloma cells (human) (P08887 20-468): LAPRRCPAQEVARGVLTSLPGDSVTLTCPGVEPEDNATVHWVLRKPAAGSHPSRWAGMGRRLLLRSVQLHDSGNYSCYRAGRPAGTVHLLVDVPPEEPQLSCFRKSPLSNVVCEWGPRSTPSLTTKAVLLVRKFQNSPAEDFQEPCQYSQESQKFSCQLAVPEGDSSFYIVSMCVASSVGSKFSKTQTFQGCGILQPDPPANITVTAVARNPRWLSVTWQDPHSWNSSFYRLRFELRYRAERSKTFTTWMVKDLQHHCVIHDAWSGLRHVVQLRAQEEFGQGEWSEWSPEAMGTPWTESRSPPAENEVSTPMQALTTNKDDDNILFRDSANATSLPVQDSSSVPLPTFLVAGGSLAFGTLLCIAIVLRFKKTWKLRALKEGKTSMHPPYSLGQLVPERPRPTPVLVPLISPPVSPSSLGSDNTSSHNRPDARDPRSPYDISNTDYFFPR

reduction of constitutive STAT3 DNA-binding (EMSA) in U266 cells: 70%
Substance: Sant7, IL-6 superantagonist (ligand)

Reference: patent publication US20070060521A1
